# How the values were obtained:
# Assay in all cases: cell-based or functional assay
# 92BR020 I326A (HIV-1) = target: 92BR020 I326A (HIV-1)
# JR-CSF N339A (HIV-1) = JR-CSF N339A (HIV-1) (UniProt P20871)
# JR-CSF I326A (HIV-1) = JR-CSF I326A (HIV-1) (UniProt P20871)
# JR-CSF H33OA (HIV-1) = JR-CSF H33OA (HIV-1) (UniProt P20871)
# [1] = target: 92BR020 N301A + N332A (HIV-1)
# JR-CSF N332A (HIV-1) = JR-CSF N332A (HIV-1) (UniProt P20871)
# 92BR020 (HIV-1) = target: 92BR020 (HIV-1)
# [2] = target: HIV-1 Env of pseudovirus 1394C9G1(Rev-) (HIV-1)
# 92BR020 D325A (HIV-1) = target: 92BR020 D325A (HIV-1)
# [3] = target: BG505 (T332N) N295A (HIV-1)
# [4] = target: HIV-1 Env of pseudovirus ZM247v1(Rev-) (HIV-1)
# 92BR020 H33OA (HIV-1) = target: 92BR020 H33OA (HIV-1)
# 92BR020 N386A (HIV-1) = target: 92BR020 N386A (HIV-1)
# [5] = target: 92BR020 N136A + N332A (HIV-1)
# [6] = target: HIV-1 Env of pseudovirus 7030102001E5(Rev-) (HIV-1)
# 92BR020 N156A (HIV-1) = target: 92BR020 N156A (HIV-1)
# [7] = target: HIV-1 Env of pseudovirus C3347.c11 (HIV-1)
# 92BR020 R327A (HIV-1) = target: 92BR020 R327A (HIV-1)
# [8] = target: 92BR020 N156A + N332A (HIV-1)
# JR-CSF Q328A (HIV-1) = JR-CSF Q328A (HIV-1) (UniProt P20871)
# 92BR020 N392A (HIV-1) = target: 92BR020 N392A (HIV-1)
# [9] = target: BG505 (T332N) N392A (HIV-1)
# [10] = target: HIV-1 envelope (Env) of pseudovirus SC05_8C11_2344 (HIV-1)
# [11] = target: HIV-1 envelope (Env) of pseudovirus CNE8 (HIV-1)
# [12] = target: HIV-1 envelope (Env) of pseudovirus CAAN5342.A2 (HIV-1)
# [13] = target: HIV-1 envelope (Env) of pseudovirus HIV-001428-2.42 (HIV-1)
# [14] = target: HIV-1 envelope (Env) of pseudovirus YU2_N280Y (HIV-1) (UniProt P35961)
# [15] = target: HIV-1 envelope (Env) of pseudovirus BG505/T332N (HIV-1)
# [16] = target: HIV-1 envelope (Env) of pseudovirus RHPA4259.7 (HIV-1)
# [17] = target: HIV-1 envelope (Env) of pseudovirus THRO4156.18 (HIV-1)
# [18] = target: HIV-1 envelope (Env) of pseudovirus 7030102001E5 (Rev-) (HIV-1)
# [19] = target: HIV-1 envelope (Env) of pseudovirus T255-34 (HIV-1)
# [20] = target: HIV-1 envelope (Env) of pseudovirus Ce1086_B2 (HIV-1)
# [21] = target: HIV-1 envelope (Env) of pseudovirus ZM233M.PB6 (HIV-1)
# [22] = target: HIV-1 envelope (Env) of pseudovirus 6545.v4.c1 (HIV-1)
# [23] = target: HIV-1 envelope (Env) of pseudovirus X1254_c3 (HIV-1)
# [24] = target: HIV-1 envelope (Env) of pseudovirus YU2_N332K (HIV-1) (UniProt P35961)
# [25] = target: HIV-1 envelope (Env) of pseudovirus 235-47 (HIV-1)
# [26] = target: HIV-1 envelope (Env) of pseudovirus 928-28 (HIV-1)
# [27] = target: HIV-1 envelope (Env) of pseudovirus Ce703010054_2A2 (HIV-1)
# [28] = target: HIV-1 envelope (Env) of pseudovirus C3347.c11 (HIV-1)
# [29] = target: HIV-1 envelope (Env) of pseudovirus CNE52 (HIV-1)
# [30] = target: HIV-1 Env of pseudovirus ZM135M.PL10a (HIV-1)
substance,measurement,setting,value
354BG8 (antibody),IC50 in TZM-bl assay,92BR020 I326A (HIV-1),0.006 µg/mL
same,IC50 in TZM-bl assay,JR-CSF N339A (HIV-1),0.01 µg/mL
same,IC50 in TZM-bl assay,JR-CSF I326A (HIV-1),0.005 µg/mL
same,IC50 in TZM-bl assay,JR-CSF H33OA (HIV-1),0.05 µg/mL
same,IC50 in TZM-bl assay,[1],> 50 µg/mL
same,IC50 in TZM-bl assay,JR-CSF N332A (HIV-1),> 50 µg/mL
same,IC50 in TZM-bl assay,92BR020 (HIV-1),0.015 µg/mL
same,IC50 in TZM-bl assay,[2],0.031 µg/mL
same,IC80 in TZM-bl assay,[2],0.093 µg/mL
same,IC50 in TZM-bl assay,92BR020 D325A (HIV-1),0.006 µg/mL
same,IC50 in TZM-bl assay,[3],0.009 µg/mL
same,IC50 in TZM-bl assay,[4],0.042 µg/mL
same,IC80 in TZM-bl assay,[4],0.146 µg/mL
same,IC50 in TZM-bl assay,92BR020 H33OA (HIV-1),0.018 µg/mL
same,IC50 in TZM-bl assay,92BR020 N386A (HIV-1),0.012 µg/mL
same,IC50 in TZM-bl assay,[5],> 50 µg/mL
same,IC50 in TZM-bl assay,[6],0.009 µg/mL
same,IC80 in TZM-bl assay,[6],0.019 µg/mL
same,IC50 in TZM-bl assay,92BR020 N156A (HIV-1),0.011 µg/mL
same,IC50 in TZM-bl assay,[7],> 10 µg/mL
same,IC80 in TZM-bl assay,[7],> 10 µg/mL
same,IC50 in TZM-bl assay,92BR020 R327A (HIV-1),0.011 µg/mL
same,IC50 in TZM-bl assay,[8],> 50 µg/mL
same,IC50 in TZM-bl assay,JR-CSF Q328A (HIV-1),0.023 µg/mL
same,IC50 in TZM-bl assay,92BR020 N392A (HIV-1),0.023 µg/mL
same,IC50 in TZM-bl assay,[9],0.005 µg/mL
BG1 (antibody),IC50 in TZM-bl assay,[10],> 30 µg/mL
same,IC80 in TZM-bl assay,[10],> 30 µg/mL
same,IC50 in TZM-bl assay,[11],> 30 µg/mL
same,IC80 in TZM-bl assay,[11],> 30 µg/mL
same,IC50 in TZM-bl assay,[12],> 30 µg/mL
same,IC80 in TZM-bl assay,[12],> 30 µg/mL
same,IC50 in TZM-bl assay,[13],1.09 µg/mL
same,IC80 in TZM-bl assay,[13],3.12 µg/mL
same,IC50 in TZM-bl assay,[14],9 µg/mL
same,IC80 in TZM-bl assay,[14],23 µg/mL
same,IC50 in TZM-bl assay,[15],0.034 µg/mL
same,IC80 in TZM-bl assay,[15],0.125 µg/mL
same,IC50 in TZM-bl assay,[16],> 30 µg/mL
same,IC80 in TZM-bl assay,[16],> 30 µg/mL
same,IC50 in TZM-bl assay,[17],> 30 µg/mL
same,IC80 in TZM-bl assay,[17],> 30 µg/mL
same,IC50 in TZM-bl assay,[18],> 30 µg/mL
same,IC80 in TZM-bl assay,[18],> 30 µg/mL
same,IC50 in TZM-bl assay,[19],11.6 µg/mL
same,IC80 in TZM-bl assay,[19],> 30 µg/mL
same,IC50 in TZM-bl assay,[20],> 30 µg/mL
same,IC80 in TZM-bl assay,[20],> 30 µg/mL
same,IC50 in TZM-bl assay,[21],> 30 µg/mL
same,IC80 in TZM-bl assay,[21],> 30 µg/mL
same,IC50 in TZM-bl assay,[22],> 30 µg/mL
same,IC80 in TZM-bl assay,[22],> 30 µg/mL
same,IC50 in TZM-bl assay,[23],0.048 µg/mL
same,IC80 in TZM-bl assay,[23],0.086 µg/mL
same,IC50 in TZM-bl assay,[24],19.4 µg/mL
same,IC80 in TZM-bl assay,[24],> 30 µg/mL
same,IC50 in TZM-bl assay,[25],1.27 µg/mL
same,IC80 in TZM-bl assay,[25],4.38 µg/mL
same,IC50 in TZM-bl assay,[26],> 30 µg/mL
same,IC80 in TZM-bl assay,[26],> 30 µg/mL
same,IC50 in TZM-bl assay,[27],> 30 µg/mL
same,IC80 in TZM-bl assay,[27],> 30 µg/mL
same,IC50 in TZM-bl assay,[28],> 30 µg/mL
same,IC80 in TZM-bl assay,[28],> 30 µg/mL
same,IC50 in TZM-bl assay,[29],0.975 µg/mL
same,IC80 in TZM-bl assay,[29],5.01 µg/mL
BG18 IgG (354BG18) (antibody),IC50 in TZM-bl assay,[30],0.029 µg/mL
same,IC80 in TZM-bl assay,[30],0.161 µg/mL
same,IC50 in TZM-bl assay,[7],> 30 µg/mL
same,IC80 in TZM-bl assay,[7],> 30 µg/mL
PGT121 (antibody),IC50 in TZM-bl assay,92BR020 I326A (HIV-1),0.002 µg/mL
same,IC50 in TZM-bl assay,JR-CSF N339A (HIV-1),0.007 µg/mL
same,IC50 in TZM-bl assay,JR-CSF I326A (HIV-1),0.024 µg/mL
same,IC50 in TZM-bl assay,JR-CSF H33OA (HIV-1),0.017 µg/mL
same,IC50 in TZM-bl assay,[1],> 1 µg/mL
same,IC50 in TZM-bl assay,JR-CSF N332A (HIV-1),> 50 µg/mL
same,IC50 in TZM-bl assay,92BR020 (HIV-1),0.004 µg/mL
same,IC50 in TZM-bl assay,[2],0.823 µg/mL
same,IC80 in TZM-bl assay,[2],6.23 µg/mL
same,IC50 in TZM-bl assay,92BR020 D325A (HIV-1),0.006 µg/mL
same,IC50 in TZM-bl assay,[3],0.014 µg/mL
same,IC50 in TZM-bl assay,[4],0.036 µg/mL
same,IC80 in TZM-bl assay,[4],0.123 µg/mL
same,IC50 in TZM-bl assay,92BR020 H33OA (HIV-1),0.003 µg/mL
same,IC50 in TZM-bl assay,92BR020 N386A (HIV-1),0.006 µg/mL
same,IC50 in TZM-bl assay,[5],> 1 µg/mL
same,IC50 in TZM-bl assay,[30],0.73 µg/mL
same,IC80 in TZM-bl assay,[30],5.73 µg/mL
same,IC80 in TZM-bl assay,[6],0.042 µg/mL
same,IC50 in TZM-bl assay,92BR020 N156A (HIV-1),0.003 µg/mL
same,IC50 in TZM-bl assay,92BR020 R327A (HIV-1),0.001 µg/mL
same,IC50 in TZM-bl assay,[8],> 1 µg/mL
same,IC50 in TZM-bl assay,JR-CSF Q328A (HIV-1),0.057 µg/mL
same,IC50 in TZM-bl assay,92BR020 N392A (HIV-1),0.007 µg/mL
same,IC50 in TZM-bl assay,[9],0.006 µg/mL

# Source: US11325966
